T1: PIK3CA H1047L peptide on HLA-A*11:01 (human)
T1 peptide: ALHGGWTTK

T2: PIK3CA H1047L peptide on HLA-A*03:01 (human)
T2 peptide: ALHGGWTTK

B1: TCR4 (TCR)
alpha TRAV19*01 TRAJ49*01 CDR3: CALSEATGNQFYF
beta TRBV29-1*01 TRBJ2-7*01 CDR3: CSVQTLTSSDEQYF
B2: TCR1 (TCR)
alpha TRAV13-2*01 TRAJ49*01 CDR3: CAEGETGNQFYF
beta TRBV5-1*01 TRBJ2-1*01 CDR3: CASSSGTGGFEQFF
B3: TCR2 (TCR)
alpha TRAV12-3*01 TRAJ26*01 CDR3: CATNYGQNFVF
beta TRBV29-1*01 TRBJ2-7*01 CDR3: CSVSGTSNYEQYF
B4: TCR5 (TCR)
alpha TRAV24*01 TRAJ44*01 CDR3: CASHAGTASKLTF
beta TRBV4-3*01 TRBJ2-1*01 CDR3: CASSQDVASSYNEQFF

Biological target: T1, PIK3CA H1047L peptide on HLA-A*11:01
Assay: multimer staining

binding result | Binder
recognises | B1
recognises | B2
recognises | B3
recognises | B4

Biological target: T2, PIK3CA H1047L peptide on HLA-A*03:01
Assay: activation reporter or marker

binding result | Binder
no recognition | B1
no recognition | B2
no recognition | B3
no recognition | B4
